For test [1], the target named is T1, hiR2-FL-D504A-T7 (human, UniProt Q6PJF5 1-856).
T1 construct: reduced surface expression reported
T1 sequence: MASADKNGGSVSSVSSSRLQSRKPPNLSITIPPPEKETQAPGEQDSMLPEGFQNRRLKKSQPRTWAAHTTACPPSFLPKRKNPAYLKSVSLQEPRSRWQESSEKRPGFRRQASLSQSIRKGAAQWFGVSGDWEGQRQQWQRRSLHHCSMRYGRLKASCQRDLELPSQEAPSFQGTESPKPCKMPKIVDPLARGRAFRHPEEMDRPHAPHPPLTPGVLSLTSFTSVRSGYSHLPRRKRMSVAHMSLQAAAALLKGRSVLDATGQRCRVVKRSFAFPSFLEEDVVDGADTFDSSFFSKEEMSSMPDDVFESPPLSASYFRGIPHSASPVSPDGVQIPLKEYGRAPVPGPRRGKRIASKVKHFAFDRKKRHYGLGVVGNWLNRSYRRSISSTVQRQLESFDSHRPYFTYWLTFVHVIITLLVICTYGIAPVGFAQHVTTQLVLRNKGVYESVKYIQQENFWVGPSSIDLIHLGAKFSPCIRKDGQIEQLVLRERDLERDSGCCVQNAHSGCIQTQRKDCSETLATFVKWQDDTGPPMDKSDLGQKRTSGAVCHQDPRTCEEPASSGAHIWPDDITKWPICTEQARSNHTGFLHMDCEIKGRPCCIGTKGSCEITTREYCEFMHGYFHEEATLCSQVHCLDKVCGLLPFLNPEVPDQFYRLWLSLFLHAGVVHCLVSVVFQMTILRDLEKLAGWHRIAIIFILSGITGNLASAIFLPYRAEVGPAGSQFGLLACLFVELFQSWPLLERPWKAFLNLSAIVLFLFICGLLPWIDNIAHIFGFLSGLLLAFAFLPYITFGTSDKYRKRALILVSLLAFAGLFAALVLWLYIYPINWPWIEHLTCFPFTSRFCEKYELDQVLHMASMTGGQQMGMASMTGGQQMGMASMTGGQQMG
In words: FACS on MEF-DKO cells expressing the variant, 3 µg/ml antibody. The method, boiled down:
(§1)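 Read-out is PE fluorescence by flow cytometry after two-step staining: antibody at 3 μg/ml for 1 hour on ice, then PE-labelled goat anti-mouse IgG F(ab′)2 (1:100) for 1 hour on ice.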

Test [2] addresses T2, hiR2-FL-L589A-T7 (human, UniProt Q6PJF5 1-856).
T2 sequence: T1 sequence with A504D, L589A
Described as above. An outline of the steps:
as §1

Substitutions are numbered along the chain they refer to.

B1: antibody 48 (antibody, V domains shown)
VH: QVQLQQSGTELVRPGTSVKVSCKASGYAFTNYLIEWVKQRPGQGLEWIGVINPGSGFTKYNEKFKGKATLTADKSSSTVYMHLSSLTSEDSAVYFCARGLYRAMDYWGQGTSVTVSS
VL: DIQMTQSPASQSASLGESVTITCLASQTIATWLAWYQQKPGKSPQLLIYGATTLADGVPSRFSGGGSGTKFSFKISSLQAEDFVSYYCQQLYSTPYTFGGGTKLEIK
notes: mouse IgG, kappa light chain; also called clone #48; purified antibody 48
Turning to B1, the “loss of binding vs wild type” value in test [1] and in test [2] was at least 60% in each case.

B2: antibody 50 (antibody, V domains shown)
VH: B1 VH with T9A, T16A, T30S, V79A, H82Q
VL: B1 VL with A30G, G50A, T52A, T53S, S85N, L91I
notes: mouse IgG, kappa light chain; also called clone #50; purified antibody 50
For the molecule B2, the “loss of binding vs wild type” value in test [1] and in test [2] was at least 60% in each case.
